From US20230002480A1

Assays:
Assay in all cases: cell-based or functional assay
[1] = biological target: HIV-1 Env of pseudovirus Du422.1 (HIV-1)
[2] = biological target: HIV-1 Env of pseudovirus 246F C1G (HIV-1)
[3] = biological target: HIV-1 Env of pseudovirus 0260.v5.c36 (HIV-1)
[4] = biological target: HIV-1 Env of pseudovirus CNE5 (HIV-1)
[5] = biological target: HIV-1 Env of pseudovirus 62357_14_D3_4589 (HIV-1)
[6] = biological target: HIV-1 Env of pseudovirus X1193_c1 (HIV-1)
[7] = biological target: HIV-1 Env of pseudovirus CAP45.2.00.G3 (HIV-1)
[8] = biological target: HIV-1 Env of pseudovirus 6540.v4.c1 (HIV-1)
[9] = biological target: HIV-1 Env of pseudovirus 191955_A11 (HIV-1)
[10] = biological target: HIV-1 Env of pseudovirus BJOX025000.01.1 (HIV-1)
[11] = biological target: HIV-1 Env of pseudovirus Du172.17 (HIV-1)
[12] = biological target: HIV-1 Env of pseudovirus Q842.d12 (HIV-1)
[13] = biological target: HIV-1 Env of pseudovirus C3347.c11 (HIV-1)
[14] = biological target: HIV-1 Env of pseudovirus T251-18 (HIV-1)
[15] = biological target: HIV-1 Env of pseudovirus 6480.v4.c25 (HIV-1)
[16] = biological target: HIV-1 Env of pseudovirus ZM109F.PB4 (HIV-1)
[17] = biological target: HIV-1 Env of pseudovirus CNE58 (HIV-1)
[18] = biological target: HIV-1 Env of pseudovirus X1632_S2_B10 (HIV-1)
[19] = biological target: HIV-1 Env of pseudovirus CNE30 (HIV-1)
[20] = biological target: HIV-1 Env of pseudovirus 231966.c02 (HIV-1)
[21] = biological target: HIV-1 Env of pseudovirus ZM214M.PL15 (HIV-1)
[22] = biological target: HIV-1 Env of pseudovirus Ce0682_E4 (HIV-1)
[23] = biological target: HIV-1 Env of pseudovirus BJOX010000.06.2 (HIV-1)
[24] = biological target: HIV-1 Env of pseudovirus Du156.12 (HIV-1)
[25] = biological target: HIV-1 Env of pseudovirus 1394C9G1(Rev-) (HIV-1)
[26] = biological target: HIV-1 Env of pseudovirus P0402_c2_11 (HIV-1)
[27] = biological target: HIV-1 Env of pseudovirus THRO4156.18 (HIV-1)
[28] = biological target: HIV-1 Env of pseudovirus CNE20 (HIV-1)
[29] = biological target: HIV-1 Env of pseudovirus T257-31 (HIV-1)
[30] = biological target: HIV-1 Env of pseudovirus C4118.c09 (HIV-1)
[31] = biological target: HIV-1 Env of pseudovirus Ce2010_F5 (HIV-1)
[32] = biological target: HIV-1 Env of pseudovirus C1080.c03 (HIV-1)
[33] = biological target: HIV-1 Env of pseudovirus 6952.v1.c20 (HIV-1)
[34] = biological target: HIV-1 Env of pseudovirus R3265.c06 (HIV-1)
[35] = biological target: HIV-1 Env of pseudovirus 6244_13_B5_4576 (HIV-1)
[36] = biological target: HIV-1 Env of pseudovirus SC422661.8 (HIV-1)
[37] = biological target: HIV-1 Env of pseudovirus 1054_07_TC4_1499 (HIV-1)

PGT121 (antibody) showed an IC50 [1] of 0.039 µg/mL, an IC80 [1] of 0.143 µg/mL and an IC50 [2] of 0.041 µg/mL. For the same substance, the IC80 [2] was 0.14 µg/mL, the IC50 [3] was 0.053 µg/mL and the IC80 [3] was 0.197 µg/mL. The IC50 [4] was greater than 50 µg/mL, the IC80 [4] was greater than 50 µg/mL and the IC50 [5] was 2.6 µg/mL. For the same substance, the IC80 [5] was greater than 50 µg/mL, the IC80 [6] was 0.086 µg/mL and the IC50 [7] was 1.63 µg/mL. For the same substance, the IC80 [7] was greater than 50 µg/mL, the IC50 [8] was greater than 50 µg/mL and the IC80 [8] was greater than 50 µg/mL. For the same substance, the IC50 [9] was greater than 50 µg/mL, the IC80 [9] was greater than 50 µg/mL and the IC50 [10] was greater than 50 µg/mL. For the same substance, the IC80 [10] was greater than 50 µg/mL, the IC50 [11] was 0.033 µg/mL and the IC80 [11] was 0.257 µg/mL. For the same substance, the IC50 [12] was 0.005 µg/mL, the IC50 [13] was greater than 50 µg/mL and the IC80 [13] was greater than 50 µg/mL. It also gave an IC50 [14] of 29 µg/mL, an IC80 [14] greater than 50 µg/mL and an IC50 [15] of less than 0.001 µg/mL. For the same substance, the IC80 [15] was 0.004 µg/mL, the IC50 [16] was 8.64 µg/mL and the IC80 [16] was greater than 50 µg/mL. The IC50 [17] was greater than 50 µg/mL, the IC80 [17] was greater than 50 µg/mL and the IC50 [18] was greater than 50 µg/mL. For the same substance, the IC80 [18] was greater than 50 µg/mL, the IC50 [19] was 0.078 µg/mL and the IC80 [19] was 0.291 µg/mL. The IC50 [20] was greater than 50 µg/mL, the IC80 [20] was greater than 50 µg/mL and the IC50 [21] was 0.46 µg/mL. For the same substance, the IC80 [21] was 2.04 µg/mL, the IC50 [22] was greater than 50 µg/mL and the IC80 [22] was greater than 50 µg/mL. It also gave an IC50 [23] greater than 50 µg/mL, an IC80 [23] greater than 50 µg/mL and an IC50 [24] of 0.004 µg/mL. It also gave an IC80 [24] of 0.017 µg/mL, an IC50 [25] of 0.264 µg/mL and an IC80 [25] of 1.95 µg/mL. The IC50 [26] was 0.005 µg/mL, the IC50 [27] was greater than 50 µg/mL and the IC80 [27] was greater than 50 µg/mL. The IC50 [28] was less than 0.001 µg/mL, the IC80 [28] was 0.002 µg/mL and the IC50 [29] was greater than 50 µg/mL. It also gave an IC80 [29] greater than 50 µg/mL, an IC50 [30] greater than 50 µg/mL and an IC80 [30] greater than 50 µg/mL. It also gave an IC50 [31] greater than 50 µg/mL, an IC80 [31] greater than 50 µg/mL and an IC50 [32] greater than 50 µg/mL. The IC80 [32] was greater than 50 µg/mL, the IC50 [33] was 0.056 µg/mL and the IC80 [33] was 0.42 µg/mL. The IC50 [34] was greater than 50 µg/mL, the IC80 [34] was greater than 50 µg/mL and the IC50 [35] was 0.061 µg/mL. It also gave an IC80 [35] of 0.347 µg/mL, an IC50 [36] of 0.038 µg/mL and an IC80 [36] of 0.177 µg/mL. It also gave an IC50 [37] of 0.064 µg/mL and an IC80 [37] of 0.304 µg/mL.
